B1: SEQ ID NO 12: Vibrio Fluvialis ω-transaminase (Genbank Accession No. AEA39183.1) (protein)
chain: MNKPQSWEARAETYSLYGFTDMPSLHQRGTVVVTHGEGPYIVDVNGRRYLDANSGLWNMVAGFDHKGLIDAAKAQYERFPGYHAFFGRMSDQTVMLSEKLVEVSPFDSGRVFYTNSGSEANDTMVKMLWFLHAAEGKPQKRKILTRWNAYHGVTAVSASMTGKPYNSVFGLPLPGFVHLTCPHYWRYGEEGETEEQFVARLARELEETIQREGADTIAGFFAEPVMGAGGVIPPAKGYFQAILPILRKYDIPVISDEVICGFGRTGNTWGCVTYDFTPDAIISSKNLTAGFFPMGAVILGPELSKRLETAIEAIEEFPHGFTASGHPVGCAIALKAIDVVMNEGLAENVRRLAPRFEERLKHIAERPNIGEYRGIGFMWALEAVKDKASKTPFDGNLSVSERIANTCTDLGLICRPLGQSVVLCPPFILTEAQMDEMFDKLEKALDKVFAEVA
modifications: Vibrio Fluvialis
B2: SEQ ID NO 8: Pseudomonas aeruginosa ω-transaminase (Genbank Accession No. AAG08191.1) (protein, listed as Pseudomonas aeruginosa)
chain: MNARLHATSPLGDADLVRADQAHYMHGYHVFDDHRVNGSLNIAAGDGAYIYDTAGNRYLDAVGGMWCTNIGLGREEMARTVAEQTRLLAYSNPFCDMANPRAIELCRKLAELAPGDLDHVFLTTGGSTAVDTAIRLMHYYQNCRGKRAKKHVITRINAYHGSTFLGMSLGGKSADRPAEFDFLDERIHHLACPYYYRAPEGLGEAEFLDGLVDEFERKILELGADRVGAFISEPVFGSGGVIVPPAGYHRRMWELCQRYDVLYISDEVVTSFGRLGHFFASQAVFGVQPDIILTAKGLTSGYQPLGACIFSRRIWEVIAEPDKGRCFSHGFTYSGHPVACAAALKNIEIIEREGLLAHADEVGRYFEERLQSLRDLPIVGDVRGMRFMACVEFVADKASKALFPESLNIGEWVHLRAQKRGLLVRPIVHLNVMSPPLILTREQVDTVVRVLRESIEETVEDLVRAGHR
B3: SEQ ID NO 7: Chromobacterium violaceum ω-transaminase (Genbank Accession No. AAQ59697.1) (protein, listed as Chromobacterium violaceum)
chain: MQKQRTTSQWRELDAAHHLHPFTDTASLNQAGARVMTRGEGVYLWDSEGNKIIDGMAGLWCVNVGYGRKDFAEAARRQMEELPFYNTFFKTTHPAVVELSSLLAEVTPAGFDRVFYTNSGSESVDTMIRMVRRYWDVQGKPEKKTLIGRWNGYHGSTIGGASLGGMKYMHEQGDLPIPGMAHIEQPWWYKHGKDMTPDEFGVVAARWLEEKILEIGADKVAAFVGEPIQGAGGVIVPPATYWPEIERICRKYDVLLVADEVICGFGRTGEWFGHQHFGFQPDLFTAAKGLSSGYLPIGAVFVGKRVAEGLIAGGDFNHGFTYSGHPVCAAVAHANVAALRDEGIVQRVKDDIGPYMQKRWRETFSRFEHVDDVRGVGMVQAFTLVKNKAKRELFPDFGEIGTLCRDIFFRNNLIMRACGDHIVSAPPLVMTRAEVDEMLAVAERCLEEFEQTLKARGLA
B4: SEQ ID NO 4: Segniliparus rugosus carboxylate reductase (Genbank Accession No. EFV11917.1) (protein, listed as Segniliparus rugosus)
chain: MGDGEERAKRFFQRIGELSATDPQFAAAAPDPAVVEAVSDPSLSFTRYLDTLMRGYAERPALAHRVGAGYETISYGELWARVGAIAAAWQADGLAPGDFVATVGFTSPDYVAVDLAAARSGLVSVPLQAGASLAQLVGILEETEPKVLAASASSLEGAVACALAAPSVQRLVVFDLRGPDASESAADERRGALADAEEQLARAGRAVVVETLADLAARGEALPEAPLFEPAEGEDPLALLIYTSGSTGAPKGAMYSQRLVSQLWGRTPVVPGMPNISLHYMPLSHSYGRAVLAGALSAGGTAHFTANSDLSTLFEDIALARPTFLALVPRVCEMLFQESQRGQDVAELRERVLGGRLLVAVCGSAPLSPEMRAFMEEVLGFPLLDGYGSTEALGVMRNGIIQRPPVIDYKLVDVPELGYRTTDKPYPRGELCIRSTSLISGYYKRPEITAEVFDAQGYYKTGDVMAEIAPDHLVYVDRSKNVLKLSQGEFVAVAKLEAAYGTSPYVKQIFVYGNSERSFLLAVVVPNAEVLGARDQEEAKPLIAASLQKIAKEAGLQSYEVPRDFLIETEPFTTQNGLLSEVGKLLRPKLKARYGEALEARYDEIAHGQADELRALRDGAGQRPVVETVVRAAVAISGSEGAEVGPEANFADLGGDSLSALSLANLLHDVFEVEVPVRIIIGPTASLAGIAKHIEAERAGASAPTAASVHGAGATRIRASELTLEKFLPEDLLAAAKGLPAADQVRTVLLTGANGWLGRFLALEQLERLARSGQDGGKLICLVRGKDAAAARRRIEETLGTDPALAARFAELAEGRLEVVPGDVGEPKFGLDDAAWDRLAEEVDVIVHPAALVNHVLPYHQLFGPNVVGTAEIIRLAITAKRKPVTYLSTVAVAAGVEPSSFEEDGDIRAVVPERPLGDGYANGYGNSKWAGEVLLREAHELVGLPVAVFRSDMILAHTRYTGQLNVPDQFTRLVLSLLATGIAPKSFYQQGAAGERQRAHYDGIPVDFTAEAITTLGAEPSWFDGGAGFRSFDVFNPHHDGVGLDEFVDWLIEAGHPISRIDDHKEWFARFETAVRGLPEAQRQHSLLPLLRAYSFPHPPVDGSVYPTGKFQGAVKAAQVGSDHDVPHLGKALIVKYADDLKALGLL
B5: SEQ ID NO 9: Pseudomonas syringae ω-transaminase (Genbank Accession No. AAY39893.1) (protein, listed as Pseudomonas syringae)
chain: MSANNPQTLEWQALSSEHHLAPFSDYKQLKEKGPRIITRAEGVYLWDSEGNKILDGMSGLWCVAIGYGREELADAASKQMRELPYYNLFFQTAHPPVLELAKAISDIAPEGMNHVFFTGSGSEGNDTMLRMVRHYWALKGQPNKKTIISRVNGYHGSTVAGASLGGMTYMHEQGDLPIPGVVHIPQPYWFGEGGDMTPDEFGIWAAEQLEKKILELGVENVGAFIAEPIQGAGGVIVPPDSYWPKIKEILSRYDILFAADEVICGFGRTSEWFGSDFYGLRPDMMTIAKGLTSGYVPMGGLIVRDEIVAVLNEGGDFNHGFTYSGHPVAAAVALENIRILREEKIVERVRSETAPYLQKRLRELSDHPLVGEVRGVGLLGAIELVKDKTTRERYTDKGAGMICRTFCFDNGLIMRAVGDTMIIAPPLVISFAQIDELVEKARTCLDLTLAVLQG

Assays:
Assay type in all cases: biochemical
[1] = ω-transaminase enzyme activity assay, reverse direction (6-aminohexanoate to adipate semialdehyde); conditions: cell free extract; 10 mM 6-aminohexanoate, 10 mM pyruvate; 25° C., 24 h; against empty vector control (FIG. 17)
Procedure: (§1) A nucleotide sequence encoding a His-tag was added to the genes from Chromobacterium violaceum, Pseudomonas aeruginosa, Pseudomonas syringae, Rhodobacter sphaeroides, and Vibrio fluvialis encoding the ω-transaminases of SEQ ID NOs: 7, 8, 9, 10 and 12, respectively (see FIG. 9) such that N-terminal HIS tagged w-transaminases could be produced. Each of the resulting modified genes was cloned into a pET21a expression vector under control of the T7 promoter and each expression vector was transformed into a BL21[DE3] E. coli host. The resulting recombinant E. coli strains were cultivated at 37° C. in a 250 mL shake flask culture containing 50 mL LB media and antibiotic selection pressure, with shaking at 230 rpm. Each culture was induced overnight at 16° C. using 1 mM IPTG.
(§2) The pellet from each induced shake flask culture was harvested via centrifugation. Each pellet was resuspended and lysed via sonication. The cell debris was separated from the supernatant via centrifugation and the cell free extract was used immediately in enzyme activity assays.
Enzyme activity assays in the reverse direction (i.e., 6-aminohexanoate to adipate semialdehyde) were performed in a buffer composed of a final concentration of 50 mM HEPES buffer (pH=7.5), 10 mM 6-aminohexanoate, 10 mM pyruvate and 100 μM pyridoxyl 5′ phosphate. Each enzyme activity assay reaction was initiated by adding cell free extract of the ω-transaminase gene product or the empty vector control to the assay buffer containing the 6-aminohexanoate and incubated at 25° C. for 24 h, with shaking at 250 rpm. The formation of L-alanine from pyruvate was quantified via RP-HPLC.

[2] = ω-transaminase enzyme activity assay, forward direction (adipate semialdehyde to 6-aminohexanoate); conditions: cell free extract; 10 mM adipate semialdehyde, 10 mM L-alanine; 25° C., 4 h; against empty vector control (FIG. 18)
Procedure: as §1, §2
Enzyme activity in the forward direction (i.e., adipate semialdehyde to 6-aminohexanoate) was confirmed for the transaminases of SEQ ID NO 7, SEQ ID NO 8, SEQ ID NO 9, SEQ ID NO 10 and SEQ ID NO 12. Enzyme activity assays were performed in a buffer composed of a final concentration of 50 mM HEPES buffer (pH=7.5), 10 mM adipate semialdehyde, 10 mM L-alanine and 100 μM pyridoxyl 5′ phosphate. Each enzyme activity assay reaction was initiated by adding a cell free extract of the ω-transaminase gene product or the empty vector control to the assay buffer containing the adipate semialdehyde and incubated at 25° C. for 4 h, with shaking at 250 rpm. The formation of pyruvate was quantified via RP-HPLC.

[3] = carboxylate reductase enzyme activity assay (adipate to adipate semialdehyde); conditions: purified enzyme enhanced by sfp gene product; 2 mM adipate; room temperature, 20 min; against empty vector control (FIG. 12)
Procedure: A sequence encoding a HIS-tag was added to the genes from Segniliparus rugosus and Segniliparus rotundus that encode the carboxylate reductases of SEQ ID NOs: 4 and 6, respectively (see FIG. 9), such that N-terminal HIS tagged carboxylate reductases could be produced. Each of the modified genes was cloned into a pET Duet expression vector along with a sfp gene encoding a HIS-tagged phosphopantetheine transferase from Bacillus subtilis, both under the T7 promoter. Each expression vector was transformed into a BL21[DE3] E. coli host and the resulting recombinant E. coli strains were cultivated at 37° C. in a 250 mL shake flask culture containing 50 mL LB media and antibiotic selection pressure, with shaking at 230 rpm. Each culture was induced overnight at 37° C. using an auto-induction media.
The pellet from each induced shake flask culture was harvested via centrifugation. Each pellet was resuspended and lysed via sonication, and the cell debris was separated from the supernatant via centrifugation. […]
Enzyme activity assays (i.e., from adipate to adipate semialdehyde) were performed in triplicate in a buffer composed of a final concentration of 50 mM HEPES buffer (pH=7.5), 2 mM adipate, 10 mM MgCl2, 1 mM ATP and 1 mM NADPH. […] The consumption of NADPH was monitored by absorbance at 340 nm.

Row | Molecule | ω-transaminase activity: acceptance of 6-aminohexanoate as substrate (formation of L-alanine from pyruvate, RP-HPLC) [1] | ω-transaminase activity: acceptance of adipate semialdehyde as substrate (formation of pyruvate, RP-HPLC) [2] | carboxylate reductase activity: acceptance of adipate as substrate (consumption of NADPH, absorbance at 340 nm) [3]
1 | SEQ ID NO 10: Rhodobacter sphaeroides ω-transaminase (Genbank Accession No. ABA81135.1) | accepted 6-aminohexanote as substrate | accepted adipate semialdehyde as substrate | –
2 | B1 | accepted 6-aminohexanote as substrate | accepted adipate semialdehyde as substrate | –
3 | B2 | – | accepted adipate semialdehyde as substrate | –
4 | B3 | accepted 6-aminohexanote as substrate | accepted adipate semialdehyde as substrate | –
5 | B4 | – | – | accepted adipate as substrate
6 | B5 | accepted 6-aminohexanote as substrate | accepted adipate semialdehyde as substrate | –

From patent US9816117B2, “Methods, reagents and cells for biosynthesizing compounds” (INVISTA North America S.á r.l., priority 2014, dated 2017)
